{"source": "patent US8124835B2", "about": "“Acyl-coa-dependent diacylglycerol acyltransferas 1 (DGAT1) gene from Tropaeolum majus, protein encoded thereby and uses thereof” (National Research Council of Canada, priority 2006, dated 2012)", "molecules": {"B1": {"name": "TmDGAT1: Tropaeolum majus acyl-CoA-dependent diacylglycerol acyltransferase 1, 518 amino acids (SEQ ID NO: 3), encoded by ORF SEQ ID NO: 2 (protein, listed as Tropaeolum majus)", "chain": "MAVAESSQNTTTMSGHGDSDLNNFRRRKPSSSVIEPSSSGFTSTNGVPATGHVAENRDQDRVGAMENATGSVNLIGNGGGVVIGNEEKQVGETDIRFTYRPSFPAHRRVRESPLSSDAIFKQSHAGLFNLCIVVLIAVNSRLIIENLMKYGWLIDTGFWFSSRSLGDWSIFMCCLTLPIFPLAAFIVEKLVQRNHISELVAVLLHVIVSTAAVLYPVIVILTCDSVYMSGVVLMLFGCIMWLKLVSYAHTSSDIRTLAKSGYKGDAHPNSTIVSCSYDVSLKSLAYFMVAPTLCYQPSYPRSSCIRKGWVVRQFVKLIVFIGLMGFIIEQYINPIVRNSKHPLKGDFLYAIERVLKLSVPNLYVWLCMFYSFFHLWLNILAELLRFGDREFYKDWWNAKTVAEYWKMWNMPVHRWMVRHLYFPCLRNGIPKEGAIIIAFLVSGAFHELCIAVPCHVFKLWAFIGIMFQVPLVLITNYLQEKFSNSMVGNMIFWFIFCILGQPMCVLLYYHDLINLKEK"}}, "key": {"DGAT activity": {"test_system": "DGAT activity", "experiment": "Substrate preference of recombinant TmDGAT1 expressed in yeast H1246MATα", "assay_type": "biochemical, Tropaeolum majus", "method": "FIG. 8. Expression of TmDGAT1 in yeast mutant H1246 MATα. DGAT assays were performed on cell lysates of yeast quadruple mutant (DGAT-, PDAT-, ASAT1^−, ASAT2^−) strain:H1246 MATα transformed with pYES2.1/V5-His-TOPO plasmid only (Control) and TmDGAT1/pYES2.1 in the presence of ^14C-labeled 16:0-, 18:0-, 18:1-, eicosenoyl-(20:1 Δ11) and 22:1 acyl-CoAs and sn-1,2-diolein (18:1 DAG) or sn-1,2-dierucin (22:1 DAG). The enzyme activity is scarcely detected in the yeast strain harboring the empty control vector, and has been subtracted from the enzyme activities detected from the H1246MATα strain expressing the TmDGAT1.\nThe TmDGAT1 ORF (SEQ. ID. NO: 2) in pYES2.1/V5-His-TOPO plasmid was transformed into a quadruple yeast mutant H1246MATα (Sandager et al, 2002) using the S.c. EasyComp™ transformation Kit (Invitrogen). Yeast cells transformed with pYES2.1/V5-His-TOPO plasmid only were used as a control. Transformants were selected by growth on synthetic complete medium lacking uracil (SC-ura), supplemented with 2% (w/v) glucose. The colonies were transferred into liquid SC-ura with 2% (w/v) glucose and grown at 28° C. overnight. The overnight cultures were diluted to an OD of 0.4 in induction medium (SC-ura+2% Galactose+1% Raffinose), and were induced for 24-36 hours at 28° C. Cells were collected and broken using glass beads. The crude protein concentration in the lysates was normalized using the Biorad assay based on the method of (Bradford, 1976) and assayed for DGAT activity. DGAT assays were conducted at pH 7.4, with shaking at 100 rev/min in a water bath at 30° C. for 60 min. […] The ^14C-labelled TAGs were isolated and counted as described above for insect cell expression.\nH1246MATα yeast cells harboring an empty pYES2.1 vector plasmid were used as a control. […] In both cases, the lowest level of TAG was detected when using the saturated 16:0-acyl-CoA. […]"}, "[1]": {"test_system": "B. napus HEAR breeding line 2026", "experiment": "Over-expression of TmDGAT1 in B. napus HEAR breeding line 2026", "assay_type": "in vivo, Brassica napus", "text": "FIG. 12. Over expression of the TmDGAT1 in B. napus High erucic acid rapeseed breeding line 2026 (courtesy of Dr. P. B. E. McVetty, University of Manitoba). Effect of transformation of B. napus with the TmDGAT1 cDNA under control of the napin promoter on (A) oil content (as percentage of mature seed dry weight), (B) Total oil/100 seeds, (C) Relative net oil content (with the control average set at 100%). T1 seeds of B. napus plasmid-only control transgenic lines (napin:pSE; black bar) and napin:TmDGAT1 transgenic lines (hatched bars) are shown ±SE.\nThe final binary vector (napin/DGAT/nos) was verified and electroporated into Agrobacterium tumefaciens cells strain GV3101 containing helper plasmid pMP90 (Koncz and Schell, 1986). Plasmid integrity was verified by DNA sequencing following its re-isolation from A. tumefaciens and transformation into E. coli.\nArabidopsis thaliana (ecotype Columbia) WT and mutant line AS11 (Katavic et al., 1995; Zou et al, 1999) were transformed by a vacuum infiltration method (Clough and Bent, 1998). B. napus HEAR breeding line 2026 (courtesy of Dr. P. B. E. McVetty, University of Manitoba) was transformed utilizing hypocotyl explants and a modified method of DeBlock et al., 1998. Modifications of the hypocotyl explant transformation method were described previously (Zou et al., 1997).\nTotal lipid extracts (TLEs) were prepared as described above, and lipid class analyses, determination of oil content and composition in all seed lines from WT and the AS11 transgenic plants and in nasturtium seed were performed as described previously (Taylor et al., 1991; 1992 a & b; Zou et al., 1997; Jako et al., 2001). In all cases, the data represent the averages of three to five determinations. Intact-seed transmethylation followed by gas chromatography (GC) analysis provided equally reproducible analyses of Arabidopsis seed oil as reported by Li et al., (2006). […]"}, "[2]": {"conditions": "acceptor sn-1,2-diolein or sn-1,2-dierucin"}}, "data": [{"molecule": "B1", "values": [{"measurement": "DGAT activity using 20:1-CoA compared to 18:1-CoA", "setting": "DGAT activity; [2]", "value": "about 2 fold"}, {"measurement": "DGAT activity using 22:1-CoA compared to 18:1-CoA", "setting": "DGAT activity; [2]", "value": "~3", "unit": "fold"}, {"measurement": "activity with radiolabeled free fatty acids as acyl donors", "setting": "DGAT activity; data not shown", "value": "no activity"}, {"measurement": "oil content increase", "setting": "[1]; T1 generation compared to average pSE plasmid-only control lines", "value": "3.5-4.5%"}, {"measurement": "increase in oil content on a per 100-seed basis", "setting": "[1]; T1 seeds", "value": "20 to 30", "unit": "mg"}, {"measurement": "net overall oil increase", "setting": "[1]; T1 seeds compared with average of pSE controls", "value": "≤ 15", "unit": "%"}]}]}
